From US20170158747A1 come the findings set out here.

Assay in all cases: cell-based or functional assay
For assay [1], the target named is human IL10 receptor (IL10R1/R2 receptor complex) on human whole blood cells (human) (UniProt Q13651).
The target of assay [2] is mouse IL10 receptor on mouse cells (whole blood, colon) (mouse) (UniProt Q61727).
Assay [3] has as its target cynomolgus monkey IL10 receptor on cynomolgus whole blood cells (cynomolgus monkey).

mouse IL10 receptor on mouse cells (whole blood, colon) (mouse), sequence (Q61727 17-575, chain 1 of 2): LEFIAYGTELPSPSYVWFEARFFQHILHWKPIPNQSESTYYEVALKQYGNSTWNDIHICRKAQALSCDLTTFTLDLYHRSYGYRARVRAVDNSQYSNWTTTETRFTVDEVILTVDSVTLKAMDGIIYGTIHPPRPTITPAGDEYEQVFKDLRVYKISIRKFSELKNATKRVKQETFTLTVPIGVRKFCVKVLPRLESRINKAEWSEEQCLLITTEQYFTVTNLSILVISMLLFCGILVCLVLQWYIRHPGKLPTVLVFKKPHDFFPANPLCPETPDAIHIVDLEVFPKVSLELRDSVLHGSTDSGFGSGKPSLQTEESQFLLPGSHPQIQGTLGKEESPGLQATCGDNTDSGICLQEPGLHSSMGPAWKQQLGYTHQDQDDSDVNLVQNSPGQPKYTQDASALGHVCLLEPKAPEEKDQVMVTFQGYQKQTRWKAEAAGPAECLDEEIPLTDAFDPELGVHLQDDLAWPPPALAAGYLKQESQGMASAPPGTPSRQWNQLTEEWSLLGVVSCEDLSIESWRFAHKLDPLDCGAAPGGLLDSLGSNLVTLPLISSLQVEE
mouse IL10 receptor on mouse cells (whole blood, colon) (mouse), sequence (Q61190 20-349, chain 2 of 2, further chain): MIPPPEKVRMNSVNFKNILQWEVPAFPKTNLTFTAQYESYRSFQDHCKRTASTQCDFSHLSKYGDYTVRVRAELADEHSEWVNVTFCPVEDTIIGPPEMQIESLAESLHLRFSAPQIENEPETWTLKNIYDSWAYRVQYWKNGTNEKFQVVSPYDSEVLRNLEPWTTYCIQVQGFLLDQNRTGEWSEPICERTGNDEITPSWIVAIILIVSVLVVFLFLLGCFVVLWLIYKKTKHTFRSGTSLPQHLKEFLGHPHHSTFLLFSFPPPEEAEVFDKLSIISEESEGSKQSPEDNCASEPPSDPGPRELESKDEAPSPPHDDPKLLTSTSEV
human IL10 receptor (IL10R1/R2 receptor complex) on human whole blood cells (human), sequence (Q13651 22-578, chain 1 of 2): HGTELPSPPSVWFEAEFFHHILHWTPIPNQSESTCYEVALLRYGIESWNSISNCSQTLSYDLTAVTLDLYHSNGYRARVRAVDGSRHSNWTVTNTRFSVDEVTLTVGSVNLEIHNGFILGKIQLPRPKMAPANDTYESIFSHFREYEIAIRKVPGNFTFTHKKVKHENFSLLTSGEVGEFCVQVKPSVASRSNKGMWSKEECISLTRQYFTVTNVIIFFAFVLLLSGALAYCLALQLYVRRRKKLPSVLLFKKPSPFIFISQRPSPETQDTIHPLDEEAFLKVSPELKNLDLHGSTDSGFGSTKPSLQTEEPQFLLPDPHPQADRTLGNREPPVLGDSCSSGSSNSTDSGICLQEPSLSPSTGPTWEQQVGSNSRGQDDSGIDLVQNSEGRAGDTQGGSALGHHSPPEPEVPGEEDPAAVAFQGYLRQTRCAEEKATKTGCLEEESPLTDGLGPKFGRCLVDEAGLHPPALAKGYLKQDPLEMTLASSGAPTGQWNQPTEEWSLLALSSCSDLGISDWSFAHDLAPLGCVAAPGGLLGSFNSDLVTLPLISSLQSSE
human IL10 receptor (IL10R1/R2 receptor complex) on human whole blood cells (human), sequence (Q08334 20-325, chain 2 of 2, further chain): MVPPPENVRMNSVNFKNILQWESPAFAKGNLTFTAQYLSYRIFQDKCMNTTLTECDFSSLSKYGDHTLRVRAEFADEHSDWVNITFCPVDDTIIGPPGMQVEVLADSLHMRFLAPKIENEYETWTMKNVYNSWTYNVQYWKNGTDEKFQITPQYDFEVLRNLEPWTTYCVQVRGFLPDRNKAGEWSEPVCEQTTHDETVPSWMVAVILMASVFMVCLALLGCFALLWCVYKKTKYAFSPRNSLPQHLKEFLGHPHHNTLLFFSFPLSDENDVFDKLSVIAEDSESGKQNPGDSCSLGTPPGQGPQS

Take “recombinant human IL10 (from UniProt P22301 19-178) (ligand)”: in assay [1], the IC30, inhibition of LPS-induced TNFα production, ex vivo human whole blood stood at 1.3 pM; the IC50, inhibition of LPS-induced TNFα production, ex vivo human whole blood stood at 2.8 pM; the IC90, inhibition of LPS-induced TNFα production, ex vivo human whole blood came to 22.8 pM. In assay [2], the IC30, inhibition of LPS-induced TNFα production, ex vivo mouse whole blood is 0.57 pM; the IC50, inhibition of LPS-induced TNFα production, ex vivo mouse whole blood came to 1.7 pM; the IC90, inhibition of LPS-induced TNFα production, ex vivo mouse whole blood worked out at 15 pM. In assay [3], this substance showed an IC30, inhibition of LPS-induced TNFα production, ex vivo cynomolgus whole blood of 0.44 pM; an IC50, inhibition of LPS-induced TNFα production, ex vivo cynomolgus whole blood of 0.65 pM; an IC90, inhibition of LPS-induced TNFα production, ex vivo cynomolgus whole blood of 1.9 pM.
